The chains are these.
B1: monoclonal antibody M2 (antibody, V domains shown)
VH: EVQLVESGGGLVQPKGSLKLSCAASDFTFNTHSMNWVRQAPGKVLEWIARIRSQSNNYATYYADSVKDRFTISRDDSQNMFYLQMNNLKTEDTAMYYCAGDYYGPFAYWGQGTLVAVSA
VL: DVLMTQTPLSLPVSLGDQASISCRSGQSLVHSNGNTYLHWYLQKPGQSPKLLIYKVSNRFSGVPDRFSGSGSGTDFTLKISRVEAEDLGVYFCSQSTHVPWTFGGGTKLEIK
notes: also called MAb M2
B2: monoclonal antibody M1 (antibody, V domains shown)
VH: QVQLQQSGPELVRPGASVKMSCKTSGYPFSTYWMHWVKQRPGQGLEWIGMIKPSNSETSLNQKFKDKATLNVDKSSNTAYMQLNSLTSEDSGVYYCARAGDSWGQGTTLTVSS
VL: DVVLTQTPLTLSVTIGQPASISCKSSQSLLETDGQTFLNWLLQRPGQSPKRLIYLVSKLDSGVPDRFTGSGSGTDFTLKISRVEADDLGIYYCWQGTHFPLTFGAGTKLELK
notes: also called MAb M1
B3: monoclonal antibody C1 (antibody, V domains shown)
VH: EVQLQQSGAELVRPGALVKLSCKASGFNIKDYYMHWVKQRPEEGLEWIGWIDPENGNTIYDPKFQGKASITADTSSNTVRLQLSSLTSEDTAVYYCARERGAYWGQGTLVTVSA
VL: QIVLTQSPAIMSASPGEKVTMTCSASSSVSYMYWFQQKPGSSPRLLIYDTSNLASGVPVRFSGSGSGTSYSLTISRMEAEDAATFYCQQWSSYPLTFGAGTKLELK
notes: also called MAb C1
B4: monoclonal antibody M3 (antibody, V domains shown)
VH: EVILVESGGGLVKPGGSLRLSCAASGFTFSSHPLSWVRQSPDKRLEWVASISSGGRYTYYPDSVKGRLTISRDNAKNILYLHMNSLRSEDTAMYYCARRGSTATAWFAYWGQGTLVTVSA
VL: DIALTQSPASLAVSLGQRATISCKASQSVDYDGDSYMSWYQQKPGQPPKLLIYGASNLESGIPARFSGSGSGTDFTLNIHPVEEEDAATYYCQQSNEDLPTFGGGTKLEIK
notes: also called MAb M3
B5: monoclonal antibody N1 (antibody, V domains shown)
VH: EVQLVESGGGLVQPGGSLKLSCAASGFTFSSYGMSWVRQSPDKRLEWVATINNNGGSTYYPDSVKGRFTISRDNAKNTLYLQMSSLKSEDTAVYYCARDAAFDCWGQGTTLTVSS
VL: DIVMSQSPSSLAVSAGEKVTMSCKSSQSLLNSRTRKNYLAWYQQKPGQSPKLLIYWASTRESGVPDRFTGSGSGTDFTLTISSVQAEDLAVYYCKQSYNLFTFGSGTKLEIK
notes: also called MAb N1

One assay deals with T1, PVY in juice of infected plants (coat protein on virus) (Potato virus Y). The experiment in a line: dot-ELISA on diluted juice of PVY-infected plants. In general terms: ELISA stands for enzyme-linked immunosorbent assay.
Take B1: the “dilution of PVY-infected juice still detected” value (shortened to “dilution”) was 640 times (fold dilution).

For B2, the “dilution” value is 5120 times (fold dilution).

With B3, the “dilution” value is 5120 times (fold dilution).

With B4, the “dilution” value is 5120 times (fold dilution).

Regarding B5, the “dilution” value is 10200 times (fold dilution).

For another assay, the target named is T1, PVY in juice of infected plants (coat …). The experiment in a line: indirect ELISA (antigen not stated).
Take B1: the Titer was 243000 reciprocal dilution.

On to B2, for which the Titer worked out at 243000 reciprocal dilution.

B3 came in with a Titer of 243000 reciprocal dilution.

B4 returned a Titer of 243000 reciprocal dilution.

Take B5: the Titer is 243000 reciprocal dilution.

For the origin of these results see patent publication US20240239872A1 (SHANDONG AGRICULTURAL UNIVERSITY, published 2024).
